Values belong to the binder of their own block, whether it stands above or below them.
Key:
[1] = molecular target: T1, human RAGE-Fc fusion protein (human, UniProt Q15109 23-344); experiment: antibody competition ELISA on hRAGE-Fc; competitor biotinylated XT-M4; sheet note: N52D (labeled N71D) is glycosylation mutant in CDR2 of HC
T1 construct: also called hRAGE-Fc; huRAGE-Fc; not shown: Fc domain of human IgG
Method: (§1) ELISA plates were coated overnight with 1 ug/ml human RAGE-Fc. […] Briefly, plates were coated overnight with 1 ug/ml human RAGE-Fc.

[2] = molecular target: T1, human RAGE-Fc fusion protein; experiment: ligand competition ELISA: HMGB1 coated, hRAGE-Fc pre-mixed with mAb, anti-huIgG-HRP; blocked ligand HMGB1
Method: Wells were washed and blocked as described above and exposed to 100 μl of pre-incubated mixtures of RAGE-Fc or TrkB-Fc (a non-specific Fc control), at 0.1 μg/ml, plus various forms of the indicated antibody preparation (dilutions of immune sera, hybridoma supernatants or purified antibodies) for 1 hour at room temperature.

[3] = molecular target: T1, human RAGE-Fc fusion protein; experiment: direct binding ELISA, coated hRAGE-Fc
Method: (§2) Antibodies were purified from hybridoma supernatants using standard procedures. Purified antibodies were evaluated for binding to soluble forms of RAGE with the use of ELISA. […] After washing and blocking with PBS containing 1% BSA and 0.05% Tween-20, 100 ul of sample (samples were in several forms: diluted immune serum, hybridoma supernatants, or purified antibodies, as indicated) was added and incubated for 1 hour at room temperature. The plates were washed with PBS, pH 7.2 and bound anti-RAGE antibodies were detected with the use of peroxidase-conjugated goat, anti-mouse IgG (H+L) (IgG) (Pierce, Rockford, Ill.) followed by incubation with the substrate TMB (BioFX Laboratories Owings Mills, Md. Laboratories). Absorbance values were determined at 450 nm in a spectrophotometer. The concentrations of monoclonal antibodies were determined with the use of peroxidase-labeled goat, anti-mouse IgG (Fcγ) (Pierce Rockford, Ill.) and a standard curve was generated by a purified, isotype-matched mouse IgG.

[4] = molecular target: T2, human RAGE V-region-Fc fusion protein (human, UniProt Q15109 23-118); experiment: direct binding ELISA, coated hRAGE V-region-Fc
T2 construct: also called hRAGE V-domain-Fc; hRAGE-V-Fc (CM); not shown: Fc domain of human IgG
Method: as §2

[5] = molecular target: T1, human RAGE-Fc fusion protein; experiment: BIACORE direct binding, hRAGE-Fc immobilized
Method: The binding of selected murine and rat anti-RAGE antibodies to human and murine RAGE and to the V domains of human and murine RAGE was analyzed by BIACORE® direct binding assay. […] Solution of the anti-RAGE antibodies at two concentrations, 50 and 100 nm, were run over the immobilized RAGE-Fc proteins in duplicate. BIACORE™ technology utilizes changes in the refractive index at the surface layer upon binding of the anti-RAGE antibodies to the immobilized RAGE antigen. Binding is detected by surface plasmon resonance (SPR) of laser light refracting from the surface.
The kinetic rate constants (kₐ and kd) and association and dissociation constants (Kₐ and Kd) for the binding of murine and rat anti-RAGE antibodies to human and murine RAGE were determined by BIACORE™ direct binding assay. Analysis of the signal kinetics data for on-rate and off-rate allows the discrimination between non-specific and specific interactions.

[6] = molecular target: T3, soluble human streptavidin-tagged RAGE (human, UniProt Q15109 23-344); experiment: BIACORE capture assay, antibody on CM5 chip, hRAGE-SA 0-100 nM in solution
T3 construct: also called hRAGE-SA; human RAGE-strep
Method: The assays were performed by coating antibodies onto a CM5 BIA chip with 5000-7000 RU.

[7] = molecular target: T3, soluble human streptavidin-tagged RAGE; experiment: BIACORE capture, hRAGE-SA over captured antibody, 1:1 Langmuir global fit, FC4
Method: (§3) The assays were performed by coating anti-human Fc antibodies onto a CM5 BIA chip with 5000 RU (pH 5.0, 7 min.) in flow cells 1-4. Each antibody was captured by flowing at 2.0 μg/ml over the anti-Fc antibodies in flow cells 2-4 (flow cell 1 was used as a reference).

[8] = molecular target: T3, soluble human streptavidin-tagged RAGE; experiment: BIACORE capture, hRAGE-SA over captured antibody, 1:1 Langmuir global fit, row Average
Method: as §3

[9] = molecular target: T3, soluble human streptavidin-tagged RAGE; experiment: BIACORE capture, hRAGE-SA over captured antibody, steady state affinity, FC3
Method: as §3

[10] = molecular target: T4, murine RAGE-strep tag fusion protein (mouse, UniProt Q62151 23-343); experiment: BIACORE capture, SA-Mu RAGE over captured antibody, 1:1 Langmuir global fit, row Average
T4 construct: also called mRAGE-strep; mRAGE-SA
T4 chain: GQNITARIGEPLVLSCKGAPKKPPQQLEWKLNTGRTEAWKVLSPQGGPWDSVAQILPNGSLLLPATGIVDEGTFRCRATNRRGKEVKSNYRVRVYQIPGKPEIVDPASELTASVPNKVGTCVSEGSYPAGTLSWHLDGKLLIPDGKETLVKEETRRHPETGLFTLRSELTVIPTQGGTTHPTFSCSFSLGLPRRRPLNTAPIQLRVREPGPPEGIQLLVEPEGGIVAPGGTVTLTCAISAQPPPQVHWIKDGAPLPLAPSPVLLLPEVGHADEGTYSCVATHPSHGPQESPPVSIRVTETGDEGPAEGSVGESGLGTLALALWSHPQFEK
Method: as §3

[11] = molecular target: T3, soluble human streptavidin-tagged RAGE; experiment: BIACORE capture, hRAGE-SA over captured antibody, steady state affinity, row Average
Method: as §3

[12] = molecular target: T3, soluble human streptavidin-tagged RAGE; experiment: BIACORE capture, hRAGE-SA over captured antibody, steady state affinity, FC4
Method: as §3

[13] = molecular target: T4, murine RAGE-strep tag fusion protein; experiment: BIACORE capture, SA-Mu RAGE over captured antibody, 1:1 Langmuir global fit, FC2
Method: as §3

[14] = molecular target: T3, soluble human streptavidin-tagged RAGE; experiment: BIACORE capture, hRAGE-SA over captured antibody, steady state affinity, FC2 (cell circled on the sheet)
Method: as §3

[15] = molecular target: T4, murine RAGE-strep tag fusion protein; experiment: BIACORE capture, SA-Mu RAGE over captured antibody, 1:1 Langmuir global fit, FC3
Method: as §3

[16] = molecular target: T4, murine RAGE-strep tag fusion protein; experiment: BIACORE capture, SA-Mu RAGE over captured antibody, 1:1 Langmuir global fit, FC4
Method: as §3

[17] = molecular target: T3, soluble human streptavidin-tagged RAGE; experiment: BIACORE capture, hRAGE-SA over captured antibody, 1:1 Langmuir global fit, FC2
Method: as §3

[18] = molecular target: T3, soluble human streptavidin-tagged RAGE; experiment: BIACORE capture, hRAGE-SA over captured antibody, 1:1 Langmuir global fit, FC3
Method: as §3

[19] = molecular target: T1, human RAGE-Fc fusion protein; experiment: competition ELISA on coated hRAGE-Fc; competitor 12.5 ng/ml biotinylated rat XT-M4; lower end of the printed range 0.3-0.4; second listing of this pair (r31, beside r26: 0.95)
Method: as §1

[20] = molecular target: T1, human RAGE-Fc fusion protein; experiment: competition ELISA on coated hRAGE-Fc; competitor 12.5 ng/ml biotinylated rat XT-M4
Method: as §1

[21] = molecular target: T1, human RAGE-Fc fusion protein; experiment: competition ELISA on coated hRAGE-Fc; competitor 12.5 ng/ml biotinylated rat XT-M4; upper end of the printed range 0.3-0.4; second listing of this pair (r31, beside r26: 0.95)
Method: as §1

IC50 (read off the curve) [1]: ~0.1 µg/mL
B1: XT-M4 with N52D in the heavy chain variable region (antibody, name in Kabat numbering, V domains shown)
VH: EVQLVESGGGLVQPGRSLKLSCVVSGFTFNNYWMTWIRQTPGKGLEWVASIDNSGDNTYYPDSVKDRFTISRDNAKSTLYLQMNSLRSEDTATYYCTRGGDITTGFDYWGQGVMVTVSS
VL: DIQMTQSPSSMSVSLGDTITITCRASQDVGIYVNWFQQKPGKSPRRMIYRATNLADGVPSRFSGSRSGSIYSLTISSLESEDVADYHCLEFDEHPLTFGSGTKVEIK
notes: Removes the glycosylation site in CDR2; also called XT-M4 N52D

IC50 (read off the curve) [2]: ~0.2 µg/mL
EC50 [3]: 0.09 nM
EC50 [4]: 0.1 nM
Ka [5]: 1.14e+10 M⁻¹
Kd [5]: 0.0876 nM
koff [5]: 0.000504 s⁻¹
kon [5]: 5.76e+06 M⁻¹ s⁻¹
Ka [6]: 9.48e+08 M⁻¹
Kd [6]: 1.06 nM
koff [6]: 0.00116 s⁻¹
kon [6]: 1.1e+06 M⁻¹ s⁻¹
B2: XT-H2 (antibody, mouse IgG1, V domains shown)
VH: QVQLQQSGAELAKPGASVKMSCKASGYTFTTYWMHWVKQRPGQGLYWIGYINPSTGYTEYNQKFKDKATLTADKSSSTAYMQLSSLTSEDSAVYYCARWAGYTIDYWGQGTSVTVSS
VL: DVVLTQTPLSLPVNIGDQASISCKSTKSLLNSDGFTYLDWYLQKPGQSPQLLIYLVSDRFSGVPDRFSGSGSGTDFTLTISRVEAEDLGVYYCFQSNSLPLTFGSGTKLEIK
notes: also called 1hRAGEP3/16; murine anti-huRAGE monoclonal antibody XT-H2

Kd [7]: 20.3 nM
koff [7]: 0.0704 s⁻¹
kon [7]: 3.47e+06 M⁻¹ s⁻¹
Kd [8]: 23.4 nM
koff [8]: 0.0457 s⁻¹
kon [8]: 2.3e+06 M⁻¹ s⁻¹
Kd [9]: 24 nM
Kd [10]: 3 nM
koff [10]: 0.0077 s⁻¹
kon [10]: 2.6e+06 M⁻¹ s⁻¹
Kd [11]: 25 nM
Kd [12]: 26 nM
Kd [13]: 3 nM
koff [13]: 0.0078 s⁻¹
kon [13]: 2.6e+06 M⁻¹ s⁻¹
Kd [14]: 25 nM
Kd [15]: 2.9 nM
koff [15]: 0.0076 s⁻¹
kon [15]: 2.6e+06 M⁻¹ s⁻¹
Kd [16]: 3 nM
koff [16]: 0.0078 s⁻¹
kon [16]: 2.6e+06 M⁻¹ s⁻¹
Kd [17]: 31.8 nM
koff [17]: 0.00972 s⁻¹
kon [17]: 306000 M⁻¹ s⁻¹
Kd [18]: 18.2 nM
koff [18]: 0.0569 s⁻¹
kon [18]: 3.13e+06 M⁻¹ s⁻¹
B3: XT-M4-V10 (antibody, V domains shown)
VH: EVQLVESGGGLVQPGGSLRLSCAASGFTFNNYWMTWVRQAPGKGLEWVASIDNSGDNTYYPDSVKDRFTISRDNAKNSLYLQMNSLRAEDTAVYYCARGGDITTGFDYWGQGTLVTVSS
VL: DIQMTQSPSSLSASVGDRVTITCRASQDVGIYVNWFQQKPGKAPKRLIYRATNLADGVPSRFSGSGSGTDFTLTISSLQPEDFATYYCLEFDEHPLTFGGGTKVEIK

IC50 [19]: 0.3 to 0.4 µg/mL
IC50 [20]: 0.95 µg/mL
IC50 [21]: 0.3 to 0.4 µg/mL
B4: humanized XT-M4 hVH-V2.0 / hVL-V2.10 (antibody, human IgG1, V domains shown)
VH: EVQLVESGGGLVQPGGSLRLSCAASGFTFNNYWMTWVRQAPGKGLEWVASIDNSGDNTYYPDSVKDRFTISRDNAKNSLYLQMNSLRAEDTAVYYCARGGDITTGFDYWGQGTLVTVSS
VL: DIQMTQSPSSLSASVGDRVTITCRASQDVGIYVNWFQQKPGKAPKRLIYRATNLADGVPSRFSGSGSGTDFTLTISSLQPEDFATYYCLEFDEHPLTFGGGTKVEIK
